Results reported in US20200377590A1 (Hoffmann-La Roche, published 2020).

T1: CD81 (UniProt P60033 1-236, limits assumed)
T1 construct: whole, on cells; also called CD81 receptor
T1 sequence (looked up): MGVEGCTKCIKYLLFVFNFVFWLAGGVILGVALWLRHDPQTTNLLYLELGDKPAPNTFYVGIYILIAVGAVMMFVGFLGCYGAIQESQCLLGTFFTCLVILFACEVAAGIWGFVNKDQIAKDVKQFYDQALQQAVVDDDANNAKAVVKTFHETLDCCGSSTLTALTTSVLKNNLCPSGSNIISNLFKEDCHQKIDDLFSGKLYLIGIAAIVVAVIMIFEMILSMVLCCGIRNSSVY


Target: T1, CD81
Assay: cell ELISA;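 further: antibody binding to HuH7 cells expressing CD81 versus a CD81-negative HuH7 control line, bound antibody detected by secondary reagent, absorbance at 450 nm with 620 nm reference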

ELISA data	Binder
0.996	CD81K04 HC JA_GG-14-hVH_1_69 / LC CD81K04 (antibody, V domains shown, human constant region) VH: QVQLVQSGAEVKKPGSSVKVSCKASGYTFSSSWMNWVRQAPGQGLEWMGRIYSGDGDAIYNGKFKGKATITADESTSTAYMELSSLRSEDTAVYYCAREGKTGDLLLRSWGQGTLVTVSS VL: DIVLTQSPASLSVSLGQRATISCRASKSVSTSIYSYMHWYQQKPGQPPKLLIKYASYLESGVPARFSGSGSGTDFTLNIHPVEEEDAATYYCEHSREFPFTFGTGTKLEIK
0.091	CD81K04 HC JA_GG-14-hVH_1_69 / LC GG-06-hVK_1_39 (antibody, V domains shown, human constant region) VH: QVQLVQSGAEVKKPGSSVKVSCKASGYTFSSSWMNWVRQAPGQGLEWMGRIYSGDGDAIYNGKFKGKATITADESTSTAYMELSSLRSEDTAVYYCAREGKTGDLLLRSWGQGTLVTVSS VL: DIQMTQSPSSLSASVGDRVTITCRASKSVSTSIYSYLNWYQQKPGKAPKLLIYYASYLQSGVPSRFSGSGSGTDFTLTISSLQPEDFATYYCQHSREFPYTFGQGTKLEIK
0.877	CD81K04 HC JA_GG-14-hVH_1_69-GA / LC CD81K04 (antibody, V domains shown, human constant region) VH: QVQLVQSGAEVKKPGSSVKVSCKASGYTFSSSWMNWVRQAPGQGLEWMGRIYSGDGDAIYNGKFKGKATITADESTSTAYMELSSLRSEDTAVYYCAREGKTGDLLLRSWGQGTLVTVSS VL: DIVLTQSPASLSVSLGQRATISCRASKSVSTSIYSYMHWYQQKPGQPPKLLIKYASYLESGVPARFSGSGSGTDFTLNIHPVEEEDAATYYCEHSREFPFTFGTGTKLEIK
0.079	CD81K04 HC JA_GG-15-hVH_1_3 / LC GG-06-hVK_1_39 (antibody, V domains shown, human constant region) VH: QVQLVQSGAEVKKPGASVKVSCKASGYTFSSSWMNWVRQAPGQRLEWMGRIYSGDGDAIYNGKFKGRVTITADTSASTAYMELSSLRSEDTAVYYCAREGKTGDLLLRSWGQGTLVTVSS VL: DIQMTQSPSSLSASVGDRVTITCRASKSVSTSIYSYLNWYQQKPGKAPKLLIYYASYLQSGVPSRFSGSGSGTDFTLTISSLQPEDFATYYCQHSREFPYTFGQGTKLEIK
0.066	CD81K04 HC JA_GG-14-hVH_1_69-GA / LC GG-06-hVK_1_39 (antibody, V domains shown, human constant region) VH: QVQLVQSGAEVKKPGSSVKVSCKASGYTFSSSWMNWVRQAPGQGLEWMGRIYSGDGDAIYNGKFKGKATITADESTSTAYMELSSLRSEDTAVYYCAREGKTGDLLLRSWGQGTLVTVSS VL: DIQMTQSPSSLSASVGDRVTITCRASKSVSTSIYSYLNWYQQKPGKAPKLLIYYASYLQSGVPSRFSGSGSGTDFTLTISSLQPEDFATYYCQHSREFPYTFGQGTKLEIK
0.123	CD81K04 HC K04_JA_GG-17-hVH_1_3 / LC GG-06-hVK_1_39 (antibody, V domains shown, human constant region) VH: QVQLVQSGAEVKKPGASVKVSCKASGYTFSSSWMNWVRQAPGQRLEWMGRIYSGDGDTIYSQKFQGRVTITADTSASTAYMELSSLRSEDTAVYYCAREGKTGDLLLRSWGQGTLVTVSS VL: DIQMTQSPSSLSASVGDRVTITCRASKSVSTSIYSYLNWYQQKPGKAPKLLIYYASYLQSGVPSRFSGSGSGTDFTLTISSLQPEDFATYYCQHSREFPYTFGQGTKLEIK
0.064	CD81K04 HC K04_JA-13-hVH_1_3 / LC GG-06-hVK_1_39 (antibody, V domains shown, human constant region) VH: QVQLVQSGAEVKKPGASVKVSCKASGYTFSSSWMNWVRQAPGQRLEWMGRIYSGDGDAIYNGKFKGRVTITRDTSASTAYMELSSLRSEDTAVYYCAREGKTGDLLLRSWGQGTLVTVSS VL: DIQMTQSPSSLSASVGDRVTITCRASKSVSTSIYSYLNWYQQKPGKAPKLLIYYASYLQSGVPSRFSGSGSGTDFTLTISSLQPEDFATYYCQHSREFPYTFGQGTKLEIK
0.08	CD81K04 HC JA_GG-16-hVH_1_3 / LC GG-06-hVK_1_39 (antibody, V domains shown, human constant region) VH: QVQLVQSGAEVKKPGASVKVSCKASGYTFSSSWMNWVRQAPGQGLEWMGRIYSGDGDAIYNGKFKGRVTITADTSASTAYMELSSLRSEDTAVYYCAREGKTGDLLLRSWGQGTLVTVSS VL: DIQMTQSPSSLSASVGDRVTITCRASKSVSTSIYSYLNWYQQKPGKAPKLLIYYASYLQSGVPSRFSGSGSGTDFTLTISSLQPEDFATYYCQHSREFPYTFGQGTKLEIK

More lines, now with the values behind:

Binder	ELISA data
CD81K04 HC JA_GG-13-hVH_1_69 / LC GG-06-hVK_1_39 (antibody, V domains shown, human constant region) VH: QVQLVQSGAEVKKPGSSVKVSCKASGGTFSSSWMNWVRQAPGQGLEWMGRIYSGDGDAIYAQKFQGRVTITADESTSTAYMELSSLRSEDTAVYYCAREGKTGDLLLRSWGQGTLVTVSS VL: DIQMTQSPSSLSASVGDRVTITCRASKSVSTSIYSYLNWYQQKPGKAPKLLIYYASYLQSGVPSRFSGSGSGTDFTLTISSLQPEDFATYYCQHSREFPYTFGQGTKLEIK	0.119
CD81K04 HC GG-02-hVH_1_69 / LC CD81K04 (antibody, V domains shown, human constant region) VH: QVQLVQSGAEVKKPGSSVKVSCKASGYTFSSSWMNWVRQAPGQGLEWMGRIYSGDGDAIYNQKFQGRVTITADESTSTAYMELSSLRSEDTAVYYCAREGKTGDLLLRSWGQGTLVTVSS VL: DIVLTQSPASLSVSLGQRATISCRASKSVSTSIYSYMHWYQQKPGQPPKLLIKYASYLESGVPARFSGSGSGTDFTLNIHPVEEEDAATYYCEHSREFPFTFGTGTKLEIK	0.918
CD81K04 HC JA_GG-13-hVH_1_69 / LC CD81K04 (antibody, V domains shown, human constant region) VH: QVQLVQSGAEVKKPGSSVKVSCKASGGTFSSSWMNWVRQAPGQGLEWMGRIYSGDGDAIYAQKFQGRVTITADESTSTAYMELSSLRSEDTAVYYCAREGKTGDLLLRSWGQGTLVTVSS VL: DIVLTQSPASLSVSLGQRATISCRASKSVSTSIYSYMHWYQQKPGQPPKLLIKYASYLESGVPARFSGSGSGTDFTLNIHPVEEEDAATYYCEHSREFPFTFGTGTKLEIK	0.564
CD81K04 HC GG-03-hVH_1_69 / LC CD81K04 (antibody, V domains shown, human constant region) VH: QVQLVQSGAEVKKPGSSVKVSCKASGYTFSSSWMNWVRQAPGQGLEWMGRIYSGDGDAIYAQKFQGRVTITADESTSTAYMELSSLRSEDTAVYYCAREGKTGDLLLRSWGQGTLVTVSS VL: DIVLTQSPASLSVSLGQRATISCRASKSVSTSIYSYMHWYQQKPGQPPKLLIKYASYLESGVPARFSGSGSGTDFTLNIHPVEEEDAATYYCEHSREFPFTFGTGTKLEIK	0.843
CD81K04 HC GG-04-hVH_1_69 / LC CD81K04 (antibody, V domains shown, human constant region) VH: QVQLVQSGAEVKKPGSSVKVSCKASGYTFSSSWMNWVRQAPGQGLEWMGRIYSGDGDAIYNQKFQGRATITADESTSTAYMELSSLRSEDTAVYYCAREGKTGDLLLRSWGQGTLVTVSS VL: DIVLTQSPASLSVSLGQRATISCRASKSVSTSIYSYMHWYQQKPGQPPKLLIKYASYLESGVPARFSGSGSGTDFTLNIHPVEEEDAATYYCEHSREFPFTFGTGTKLEIK	0.859
CD81K04 HC GG-06-hVH_1_69 / LC CD81K04 (antibody, V domains shown, human constant region) VH: QVQLVQSGAEVKKPGSSVKVSCKASGYTFSSSWMCWVRQAPGQGLEWMGCIYSGDGDAIYNQKFQGRVTITADESTSTAYMELSSLRSEDTAVYYCAREGKTGDLLLRSWGQGTLVTVSS VL: DIVLTQSPASLSVSLGQRATISCRASKSVSTSIYSYMHWYQQKPGQPPKLLIKYASYLESGVPARFSGSGSGTDFTLNIHPVEEEDAATYYCEHSREFPFTFGTGTKLEIK	0.342
CD81K04 HC JA_GG-14-hVH_1_3 / LC CD81K04 (antibody, V domains shown, human constant region) VH: QVQLVQSGAEVKKPGASVKVSCKASGYTFSSSWMNWVRQAPGQGLEWMGRIYSGDGDAIYNGKFKGRATITADTSASTAYMELSSLRSEDTAVYYCAREGKTGDLLLRSWGQGTLVTVSS VL: DIVLTQSPASLSVSLGQRATISCRASKSVSTSIYSYMHWYQQKPGQPPKLLIKYASYLESGVPARFSGSGSGTDFTLNIHPVEEEDAATYYCEHSREFPFTFGTGTKLEIK	0.998
CD81K04 HC JA_GG-14-hVH_1_3 / LC GG-06-hVK_1_39 (antibody, V domains shown, human constant region) VH: QVQLVQSGAEVKKPGASVKVSCKASGYTFSSSWMNWVRQAPGQGLEWMGRIYSGDGDAIYNGKFKGRATITADTSASTAYMELSSLRSEDTAVYYCAREGKTGDLLLRSWGQGTLVTVSS VL: DIQMTQSPSSLSASVGDRVTITCRASKSVSTSIYSYLNWYQQKPGKAPKLLIYYASYLQSGVPSRFSGSGSGTDFTLTISSLQPEDFATYYCQHSREFPYTFGQGTKLEIK	0.091
